Assay results reported in article PMC7870875 (Scientific Reports, 2021).

Experiments:
[1] = target: T1, full-length Spike protein of SARS-CoV-2 (SARS-CoV-2 (Wuhan-Hu-1 reference; …, UniProt P0DTC2); experiment: far-Western, overlay or dot blot; conditions: one partner purified
T1 construct: source: bought: SINOBiological; produced in a baculovirus expression system

Spike-GFP = target: T2, Spike-GFP (SARS-CoV-2 (Wuhan-Hu-1 reference; …, UniProt P0DTC2); experiment: immunostaining of cells or tissue; conditions: partners not purified
T2 construct: also called S-GFP

B1: intimin-Nanobody fusion of clone W23 (bacterial display) (VHH)
VHH: QVQLVESGGGLVQPGESLRLSCAASGNIFGIAAVHWFRKAPGKEREFTAGFGSDGSTNYANSVKGRFTISRDNAKNTTYLQMNSLKPEDTAVYYCHALIKNELGFLDYWGPGTQVTVSS
notes: also called clone W23 total protein extract
binding result [1]: binds
binding result (Spike-GFP): binds
